In publication PMC7038949, “FRET-Based Aptasensor for the Selective and Sensitive Detection of Lysozyme”:

Target: lysozyme (chicken (egg white), UniProt P00698 19-147)
Experiment: single-molecule FRET (aptamer displacement); H1 helper strand 1 uM, 10 mM Mg2+; detection limit 30 nM, dynamic range to ~2 uM (not a Kd); 1x TAE-Mg: 40 mM Tris, 20 mM acetic acid, 1 mM EDTA, 10 mM Mg2+, pH 7.4; 1 uM H1 in imaging solution; temperature not stated
Conditions: protein: commercial; label: 3' Cy3 on Cy3 strand; 5' Cy5 on Cy5 strand; partially double-stranded multi-strand assembly; 15 nt of aptamer strand (6 extension + 9 aptamer) paired with B1; lysozyme displaces the aptamer strand

lysozyme, sequence (P00698 19-147): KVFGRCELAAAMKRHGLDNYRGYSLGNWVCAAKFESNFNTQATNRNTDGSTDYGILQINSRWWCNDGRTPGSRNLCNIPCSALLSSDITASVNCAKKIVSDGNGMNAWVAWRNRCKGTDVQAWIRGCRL

B1: lysozyme aptasensor (aptamer annealed to B1, Cy5, top and Cy3 strands) (mixed)
DNA 1: ACTGTCATCAGGGCTAAAGAGTGCAGAGTTACTTAG
DNA 2: AGCCCTGATGACAGTAATATAATTCTATA
DNA 3: TATAGAATTATATTATATTACGAGTAGTGAGTTCCA
DNA 4: ATCAGAAGCTCTC
DNA 5: TGGAACTCACTACTCGATTAGTGTATGACCTCTATATGAGAGCTTCTGAT
modifications: 5' biotin-TEG on Cy3 strand
B1: binds.
